Assay: label from the status in PepcDB records

Row | Sequence | protein production
1 | MKLRHCLIIVFACCAALWSESPSIADDAVRTSLAGLEWHVVTDVWPPFRIEQETGLVGIDVDILKALSTSLGLRLRISRAPWGRCLKMLETGAADAMIGLAKSAEREVYIRYVPTSYYTCSPRFYILAGARRAVLTYDDLEGMRVGYVAQSRYFEPFDSDTKLQKYAVPTERQLLELLLAGRVDVMVGTDCQVDYELAEAGLLERVVVAPYRPDAHTRLYLGFSRKSRFVPRIALFDDAMRDLLEKGALKQIRASYLPDSSVSGR | failed
2 | MAARDPEATKARIFEAAVAEFARHGIAGARIDRIAAEARANKQLIYAYYGNKGELFASVLEKKMLDLAISVPVDPDDIEGWIDRLLDYHAAHPELLRLLFWEGMEYGTAELPHEAERQEHYARKVAAVRDGQERGVITDAIPAPDLLFLLVAMANWAVVVPQMKRILVGGGDAGTDGLRDSIKKAARRIVDR | not failed
3 | MPGIKVHPNESFDEAYRKFKKQVDRNLVVTEVRARRFFEPMTEIRKKQKISARKKMLKRLYMLRRYESRLLEHHHHHH | failed
4 | MWVKPLREASQGKKEEEIHIKTSSSSSARSLAPLLVLKLIRSLSSSSARLQASQLVLKLLCSSSSSSACPQALQLALKLLCWSSSSSTGPQAPQLVFKLSSSSLSSARLQAPPLNDHLLA | failed
5 | MLAILGFVMMIVFMYLIMSNRLSALIALIVVPIVFALISGFGKDLGEMMIQGVTDLAPTGIMLLFAILYFGIMIDSGLFDPLIAKILSFVKGDPFKIAVGTAVLTMTISLDGDGTTTYMITIRAMLPLYKRLGMNRLVLAGIAMLGSGVMNIIPWGEPTARVLASLKLDTSEVFTPLIPAMIAGILWVIAVAYILGKKERKRLGVISIDHAPSSDPEAAPLKRPALQWFNLLLTVALMAALITSLLPLPVLFMTAFAVALMVNYPNVKEQQKRISAHAGNALNVVSMVFAAGIFTGILSGTKMVDAMAHSTRSLIPDAMGPHLPLITAIVSMPFTFFMSNDAFYFGVLPIIAEAASAYGIDAAEIGRASLLGQPVHLLSPLVPSTYLLVGMAGVSFGDHQKFTIKWAVGTTIVMTIAALLIGIISF | failed
6 | GGERRELKSLEQVHFAMAFEAPNYRAPDVYAAQVYAMALGGGMSSRLFQKVREERGLCYSIFAQSGAYEDTGQITIYAGTSGEEVADLAGLTVDELKRATEDMSEAEVARARAQLKAGLLMGLESPSNRAERLARLLAIWGRVPGVDEAVEKIDAVTVGAVRDYAERMAQARSALALYGPAEAAPALAQIRERLAA | failed
7 | MTVAGLWLFAMALGASALGGMLGMASGIFIVPLLVLWGIDVHAAIAASIVSVIACSCGSAAAFLQSGLTHVRLAVVLETATTLGALTSVFLVGAVPVAALYALFAVVLVVSAWQMLARRRDPARASGAPACRWAGALRLHGRYRDPAAGRHRRYRVQRLPLGMSLMYGAGVLSALLGIGSGVLKIPAMDSALRLPLKVSSATSNFMIGVTAAASAAVYFARGEIDPAVAGPVALGSVAGSVLGARILMHVSGERLRLLFVAVLALLAVQMLLMALGVQWPGGGR | failed
8 | MDNLETDRLILINYTLEMIQATINGTEALEKTSGYHVSPDWPGIDFFFYLPYVLENVKKDDKMIKWTRLVVLKTENKIIGEIGGQGNPDETGEIEIGYSIVPDYQNKGYMSEALISMIDWLEHQPVINRIFARCYEQNEASIQVLKHNHFVH | failed
9 | IVAGFTSIPSQGDNMPAYHARPKQSDGPLPVVIVVQEIFGVHEHIRDICRRLALEGYLAIAPELYFREGDPNDFADIPTLLSGLVAKVPDSQVLADLDHVASWASRNGGDVHRLMITGFCWGGRITWLYAAHNPQLKAAVAWYGKLTGDKSLNSPKQPVDIATDLNAPVLGLYGGQDNSIPQESVETMRQALRAANAKAEIIVYPDAGHAFNADYRPSYHAESAKDGWQRMLEWFTQY | failed
10 | MMTKFWNDRYKSDEYFYGEEPNTFIKEQAFRLANHNKVIAFAEGEGRNAVFLARQGNEVTAIDYSEDGLEKTKKLAEKHNVNVHTKKVDLLADSLPENEYDAAIMVFGHFHDDYKKMILGKMIQTIKPGGLIMFEVYSKKQINYGTGGPKDVDMLYDPIDILTWCEEHKVIHFFNGEQERIEGKGHTGLADVIQVVIRK | failed
11 | MCLALPAQIDQVLEDNKAIVNLGGITKEISTVLLEQVSEGEYVIIHAGFALTKLDEREANKTLSLFAHMLKDG | not failed
12 | MRIGIMGLGRIGAFHAETLSGLPAVTSLVVTDPFTDAAKSAAERFGAEVADSPEAVLAAGVDGVVVAAATDAHPGLVLAAVEAGVPVFCEKPVARTMREGVAVLEAVRDAGVEIQIGYNRRFDAGFVAARAAVASGELGALHTVRSTTLDPAPPPPAYVAASGGIFRDCSVHDFDIIRWVTGREVVEVYATGGNRGADYIAAAGDADTTAAVLTLDDGTLAVVSNSRHNARGHDVRMELHGFRDSIAVGLEDRLPLRSVEPGTSFPAGTPHDFFMDRFAAAYRAELTAFTEVVAGRRPSPCTVADALEAGWIAEACTLSLHSHRPVTVEEVRRQS | failed
13 | MTKAIQSSVQVGELATGQALTVPIYSFMGSENSAPSVYIQANVHGAEVQGNAVIYQLMTLLEGYQVLGDITLAPLANPLGINQKSGEFTLGRFDPITGVNWNREYFDHNVDIQNWYAEHQHLTNSELFCAYRSMLVETCQARLTHSFGISTGHRLAVNLQAMAHQADIVLDLHTGPKSCKHLYCPEYDIDAARFFSIPYTLIIPNSFGGAMDEATFCPWWQLTEYATSQGREFSVPVSAFTLELASQERIDLADALEDAKGILAYLSHRGVIAEKVNPASMERFGCYLKDYKKFHAPKAGLIEYCASVGEPLTAGKPLVNILRIDLYGSEQAYQAISLPMDCVPILHFASASVLQGTELYKVMTNVFPLQPS | not failed
14 | MKNGERARAGHGSPAAPGPTAGPGPAPAPGPTVVGREAEIAEIRSRIAADRSHSSVLIVEGDPGAGKSVLLDLAVRLTRGTGQRVLRAVGSESEASLAFAGLHQMLRPVLDDLGGLPARQRSALRTALGLAEDAEDAADTPDALLVGLAVLTLVSDLSEPAPLLVVVDDAQWIDRASLDVLSFLARRMAGEPVTLLMGVRAAAVLPGFDKGYERLEIGPLSGDAANRLLDEQPKRPTGRTRARILREAAGNPLALVELARATADREPEGSGVEGPLPVTDRLEGIFARHVRHLPEATRRALLLLAAADAADAPAAARGLPEAADTVWAPAERAGLVRQDGTGVSFRHPLVRSAVYHAAPFEQRRRAHLALARQLGEEPDRRAWHLAAAAVRPDEQVSAALRETAGRARRRGGHAAAAAALERAAELSPHRADQARLLADAADTAVFTGQLGWVEHLAAGARERSDDPALIGRAALATGRLLTLGPHHTAAFALLSRVADEAAATRSPRLLDALAAAAVVRYYSGEESQRQRIEALLADVPDSAAGGALRAWVLAVSDPSGAGASLAPALPRLIAAAKGEAGSLTALAVVAWLLDRTPLAARTFDEAFGRWQAHGPLPAGLACAAGWAYLEQGRWADARSVAAEIAEVASGAGLDHAEACARTLDATVLALLGEPAEARGSAERALALVAPLESRSVAVLARRALGLAAVAEGDYDSAYAQFRAAFTEDGDLVHYHVSPTVLAELAAAAVRRGHREPAARLLERSARHLGPGMSARLFLLVERGRALLAEPERAERHFRAALAGEAGEQWPFERAQTRLDYGEWLRRQRRVAEARPLLTGALDTFRRLGARPWIDRAKAELRAAGIEADAAAPGALTELSPQQQQIVRLAAHGLTNREIGERLFLSPRTVGSHLYRVFPKLGITARAQLRDLLDDALQATGSAQ | failed
15 | MLSYPGELQGCRVILYLVGHHLYLIPTTISMCGCPEEGAYMRRLWGYISIITATIFFGISATLDKIMLSSMHPVTIGAYTYIIAGIFLFFIRETPLREHVLNAINRKGESEARIKRNDYLILLLTALLSTVIAPLLFLTGLGDTTAVNASLILNVEVLFIILLGYLIFRETLQLKDFLGIVLIILGAVYLLTEGDFSTILRNVAVTGNFLVMAAAFFWSLDTVLSKFLSRKRDLIFISGVKSSVGGFVLLIIMLILGINTELPLEMLPYALGVSVFSIGCSFILIYIAIREIGASMVGALFPLSSLFGAIFAFIILREPFSIMQGISGIVMLTGVFILYWNGK | failed
16 | MKKVTIVGGNGTVGRVLAGGLAGEGYEVTVLDLKEPDDKQAVRFIRVDATDYNEVVKSIPAQTNALINLLAVKPSGDLLDRQEFAKMTDIFFKATYTILRAAAELGVPKVVFASSNHVTDVYEKGGDSLLGRQINTNDYPQSKSLYGLLKLASENLGYLFSHQLDAKVSVINLRIGTAAENELETLHAKPRSKKTLLSHPDLIGIFKAAIKSGKTYGTYYAVSDNKGRPWSIDSAIRELGYRPQVSASDILDED | failed
17 | MTKACEANKSFLQSAVDKKEYSRTLLVDDGSDEGARSAGAFRPTPHRKGHGGRSPRRDQSPRRDSPQTASRTRLSSELIADLLQKKRERPTRSSSFPKRDKTIARTDRSPRSSPLPRSMGPPPPVIASPSSRSWGERPVGVQILTRRV | failed
18 | MPEVIFNGPAGRLEGRYQPSKEKSAPIAIILHPHPQFGGTMNNQIVYQLFYLFQKRGFTTLRFNFRSIGRSQGEFDHGAGELSDAASALDWVQSLHPDSKSCWVAGYSFGAWIGMQLLMRRPEIEGFMSIAPQPNTYDFSFLAPCPSSGLIINGDADKVAPEKDVNGLVEKLKTQKGILITHRTLPGANHFFNGKVDELMGECEDYLDRRLNGELVPEPAAKRIR | not failed
19 | MSRNRVMSIDFQQLPHAGIRSLIPYVPGKSIEELAKEKGITDIIKLASNENPLGCSPLALSVIQTMSSHYIATYPSPWNHPLMSKLASYLKVKPEQLFLSNGSDYLFNILLNCFALHTDRHILTHDYAFSTYAIQANSLQIPINSVPIGHNWEVNITDIVNACNQQTGIIFIANPNNPTGVLIQQEEIKYLLEQIPKSTLLVLDEAYYEFAASQLTVNSLDWLEEHPNLVVTRTFSKIYGMAGLRLGYAIANPSIINILKRVQLPFIVNQVALAAAYAAIDDDDFIQSSLKMNNEGMLQLQAGFNELNIKYLPSSCNFLTFDCEEDSMALYNYLLDNGIIVRPLHAYKMNNFIRVTIGTKEQNSRFLTALKNFYL | failed
20 | MIKNNIKHTWYFGHPQQLVWDYLTKPELLSQWLMESDFQPVAGHTFMFNTKPKVKVGFDGLIYCQVLKVQPDHELEHHHHHH | not failed
21 | ELQAGFDKQEYMETLKINYKVHIALDKWAANTSVADPQDFDFVYRSPVVAFDNIWDLWKHKNKSVALISVQGSIQTEASFLANLYAAMIPAKGELQLDKDFKFTYQLADNPHAAVHVGWFVAMAYLSKTVVSKIDSCYNAGIKDFILTGHSQGGGITFLLNSYLENLKMQGRLPADIRFKTYCSAGPKPGNLFYAYEYEHMTAGGWAYNVVNTADWVPDVPFSVQTVTDFTAVNPFHGAKKAIRKQRFPANLALKHMYNKMSKPSERAQKNYQKYLGRMVSNAVKKQIPNFNAPEYYNSNYYVRTGNTIVLFPDEAYYKIYSNDPEDPNIWRHHLP | failed
22 | MHRSTFIRTSGTSSRTLTARYRSQYTGLLVARVLFSTSTTRAQGGNPRSPLQIFRDTFKKEWEKSQELQENIKTLQDASGKLGESEAYKKAREAYLKAQRGSTIVGKTLKKTGETMEHIATKAWESELGKNTRKAAAATAKKLDESFEPVRQTKIYKEVSEVIDDGESSRYGGFITKEQRRLKRERDLASGKRHRAVKSNEDAGTAVVATNIESKESFGKKVEDFKEKTVVGRSIQSLKNKLWDESENPLIVVMRKITNKVGGFFAETESSRVYSQFKLMDPTFSNESFTRHLREYIVPEILEAYVKGDVKVLKKWFSEAPFNVYAAQQKIFKEQDVYADGRILDIRGVEIVSAKLLAPQDIPVLVVGCRAQEINLYRKKKTGEIAAGDEANILMSSYAMVFTRDPEQIDDDETEGWKILEFVRGGSRQFT | failed
